From publication PMC7290806, “VviWRKY40, a WRKY Transcription Factor, Regulates Glycosylated Monoterpenoid Production by VviGT14 in Grape Berry” come the findings set out here.

This data set addresses T1, VviWRKY40 (Vitis vinifera 'Muscat blanc à Petit …, UniProt E7BTN0 1-317).
T1 sequence: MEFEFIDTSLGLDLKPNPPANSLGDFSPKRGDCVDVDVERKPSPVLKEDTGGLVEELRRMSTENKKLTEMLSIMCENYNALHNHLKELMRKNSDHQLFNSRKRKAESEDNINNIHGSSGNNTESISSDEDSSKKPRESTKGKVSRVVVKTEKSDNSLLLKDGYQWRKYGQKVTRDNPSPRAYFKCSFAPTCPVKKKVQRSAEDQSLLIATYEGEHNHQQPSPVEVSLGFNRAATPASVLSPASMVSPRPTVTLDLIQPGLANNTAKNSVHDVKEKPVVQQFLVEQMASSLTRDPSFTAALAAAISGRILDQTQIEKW
Description: EMSA; shift without cold probe and with up to 50x cold probe; 50x and 200x unlabeled self-competitor tested; EMSA: LightShift Chemiluminescent kit, 50 ng protein, 15 ng probe, room temperature, 25 min (buffer and pH not stated); pull-down: poly(dI-dC), DTT, EDTA, EGTA, 4 °C, 1 h. Conditions: protein: recombinant; tags: 6xHis, pET32a fusion (19 kDa tag, 55 kDa in total); label: 3' biotin (Methods also says digoxigenin-labeled); blunt (duplex implied, only one strand printed). (In general: A gel shift assay detects complexes by their altered migration in electrophoresis.)

B1: VviGT14 promoter 41-bp w-box fragment (dsDNA)
DNA 1: AGAAGTGAGAGGGTAAGTTGACCATGCACTCTCATCTAGAT
DNA 2: ATCTAGATGAGAGTGCATGGTCAACTTACCCTCTCACTTCT
As for B1, the binding result is reported as “binds”.
